Laboratory results published in US11325966.

Key:
Assay in all cases: cell-based or functional assay
[1] = target: HIV-1 Env of pseudovirus T251-18 (HIV-1)
[2] = target: HIV-1 Env of pseudovirus 89-F1_2_25 (HIV-1)
[3] = target: HIV-1 Env of pseudovirus T255-34 (HIV-1)
[4] = target: HIV-1 Env of pseudovirus WITO4160.33 (HIV-1)
[5] = target: HIV-1 Env of pseudovirus BF1266.431a (HIV-1)
[6] = target: HIV-1 Env of pseudovirus CNE5 (HIV-1)
[7] = target: HIV-1 Env of pseudovirus PVO.4 (HIV-1)
[8] = target: HIV-1 Env of pseudovirus SC422661.8 (HIV-1)
[9] = target: HIV-1 Env of pseudovirus HIV-16055-2.3 (HIV-1)
[10] = target: HIV-1 Env of pseudovirus 1006_11_C3_1601 (HIV-1)
[11] = target: HIV-1 Env of pseudovirus CAP210.2.00.E8 (HIV-1)
[12] = target: HIV-1 Env of pseudovirus ZM53M.PB12 (HIV-1)
[13] = target: HIV-1 Env of pseudovirus 3103.v3.c10 (HIV-1)
[14] = target: HIV-1 Env of pseudovirus 249M B10 (HIV-1)
[15] = target: HIV-1 Env of pseudovirus 6240_08_TA5_4622 (HIV-1)
[16] = target: HIV-1 Env of pseudovirus CAAN5342.A2 (HIV-1)
[17] = target: HIV-1 Env of pseudovirus 1056_10_TA11_1826 (HIV-1)
[18] = target: HIV-1 Env of pseudovirus CNE52 (HIV-1)
[19] = target: HIV-1 Env of pseudovirus 0815.v3.c3 (HIV-1)
[20] = target: HIV-1 Env of pseudovirus 62357_14_D3_4589 (HIV-1)
[21] = target: HIV-1 Env of pseudovirus X2131_C1_B5 (HIV-1)
[22] = target: HIV-1 Env of pseudovirus X2088_c9 (HIV-1)
[23] = target: HIV-1 Env of pseudovirus CNE58 (HIV-1)
[24] = target: HIV-1 Env of pseudovirus CAP45.2.00.G3 (HIV-1)
[25] = target: HIV-1 Env of pseudovirus 235-47 (HIV-1)
[26] = target: HIV-1 Env of pseudovirus T250-4 (HIV-1)
[27] = target: HIV-1 Env of pseudovirus BJOX009000.02.4 (HIV-1)
[28] = target: HIV-1 Env of pseudovirus THRO4156.18 (HIV-1)
[29] = target: HIV-1 Env of pseudovirus Ce704809221_1B3 (HIV-1)
[30] = target: HIV-1 Env of pseudovirus P1981_C5_3 (HIV-1)
[31] = target: HIV-1 Env of pseudovirus 6545.v4.c1 (HIV-1)
[32] = target: HIV-1 Env of pseudovirus T278-50 (HIV-1)
[33] = target: HIV-1 Env of pseudovirus CNE20 (HIV-1)
[34] = target: HIV-1 Env of pseudovirus AC10.0.29 (HIV-1)
[35] = target: HIV-1 Env of pseudovirus 211-9 (HIV-1)
[36] = target: HIV-1 Env of pseudovirus SC05_8C11_2344 (HIV-1)
[37] = target: HIV-1 Env of pseudovirus 9004SS_A3_4 (HIV-1)
[38] = target: HIV-1 Env of pseudovirus BJOX025000.01.1 (HIV-1)
[39] = target: HIV-1 Env of pseudovirus WEAU_d15_410_787 (HIV-1)
[40] = target: HIV-1 Env of pseudovirus ZM233M.PB6 (HIV-1)

Substance: BG18 IgG (354BG18) (antibody)
- IC50 in TZM-bl assay [1]: 0.086 µg/mL
- IC80 in TZM-bl assay [1]: 0.328 µg/mL
- IC50 in TZM-bl assay [2]: > 30 µg/mL
- IC80 in TZM-bl assay [2]: > 30 µg/mL
- IC50 in TZM-bl assay [3]: > 30 µg/mL
- IC80 in TZM-bl assay [3]: > 30 µg/mL
- IC50 in TZM-bl assay [4]: 0.018 µg/mL
- IC80 in TZM-bl assay [4]: 0.25 µg/mL
- IC50 in TZM-bl assay [5]: > 30 µg/mL
- IC80 in TZM-bl assay [5]: > 30 µg/mL
- IC50 in TZM-bl assay [6]: > 30 µg/mL
- IC80 in TZM-bl assay [6]: > 30 µg/mL
- IC50 in TZM-bl assay [7]: 0.003 µg/mL
- IC80 in TZM-bl assay [7]: 0.013 µg/mL
- IC50 in TZM-bl assay [8]: 0.005 µg/mL
- IC80 in TZM-bl assay [8]: 0.021 µg/mL
- IC50 in TZM-bl assay [9]: > 30 µg/mL
- IC80 in TZM-bl assay [9]: > 30 µg/mL
- IC80 in TZM-bl assay [10]: 0.004 µg/mL
- IC50 in TZM-bl assay [11]: 3.47 µg/mL
- IC80 in TZM-bl assay [11]: 10.7 µg/mL
- IC50 in TZM-bl assay [12]: > 30 µg/mL
- IC80 in TZM-bl assay [12]: > 30 µg/mL
- IC50 in TZM-bl assay [13]: 0.002 µg/mL
- IC80 in TZM-bl assay [13]: 0.005 µg/mL
- IC50 in TZM-bl assay [14]: > 30 µg/mL
- IC80 in TZM-bl assay [14]: > 30 µg/mL
- IC50 in TZM-bl assay [15]: 0.003 µg/mL
- IC80 in TZM-bl assay [15]: 0.01 µg/mL
- IC50 in TZM-bl assay [16]: 0.008 µg/mL
- IC80 in TZM-bl assay [16]: 0.04 µg/mL
- IC50 in TZM-bl assay [17]: 0.007 µg/mL
- IC80 in TZM-bl assay [17]: 0.045 µg/mL
- IC50 in TZM-bl assay [18]: 0.012 µg/mL
- IC80 in TZM-bl assay [18]: 0.045 µg/mL
- IC50 in TZM-bl assay [19]: 0.16 µg/mL
- IC80 in TZM-bl assay [19]: 5.96 µg/mL
- IC50 in TZM-bl assay [20]: 3.01 µg/mL
- IC80 in TZM-bl assay [20]: > 30 µg/mL
- IC50 in TZM-bl assay [21]: 0.002 µg/mL
- IC80 in TZM-bl assay [21]: 0.008 µg/mL
- IC50 in TZM-bl assay [22]: 0.004 µg/mL
- IC80 in TZM-bl assay [22]: 0.009 µg/mL
- IC50 in TZM-bl assay [23]: 0.024 µg/mL
- IC80 in TZM-bl assay [23]: 0.073 µg/mL
- IC50 in TZM-bl assay [24]: > 30 µg/mL
- IC80 in TZM-bl assay [24]: > 30 µg/mL
- IC50 in TZM-bl assay [25]: 0.005 µg/mL
- IC80 in TZM-bl assay [25]: 0.017 µg/mL
- IC80 in TZM-bl assay [26]: 0.006 µg/mL
- IC50 in TZM-bl assay [27]: 24.4 µg/mL
- IC80 in TZM-bl assay [27]: > 30 µg/mL
- IC50 in TZM-bl assay [28]: > 30 µg/mL
- IC80 in TZM-bl assay [28]: > 30 µg/mL
- IC50 in TZM-bl assay [29]: 4.39 µg/mL
- IC80 in TZM-bl assay [29]: > 30 µg/mL
- IC50 in TZM-bl assay [30]: 0.006 µg/mL
- IC80 in TZM-bl assay [30]: 0.019 µg/mL
- IC50 in TZM-bl assay [31]: > 30 µg/mL
- IC80 in TZM-bl assay [31]: > 30 µg/mL
- IC50 in TZM-bl assay [32]: 2.95 µg/mL
- IC80 in TZM-bl assay [32]: 12.9 µg/mL
- IC50 in TZM-bl assay [33]: 0.002 µg/mL
- IC80 in TZM-bl assay [33]: 0.006 µg/mL
- IC80 in TZM-bl assay [34]: 0.003 µg/mL
- IC50 in TZM-bl assay [35]: 1.3 µg/mL
- IC80 in TZM-bl assay [35]: 5.53 µg/mL
- IC50 in TZM-bl assay [36]: 0.003 µg/mL
- IC80 in TZM-bl assay [36]: 0.016 µg/mL
- IC50 in TZM-bl assay [37]: 0.005 µg/mL
- IC80 in TZM-bl assay [37]: 0.056 µg/mL
- IC50 in TZM-bl assay [38]: > 30 µg/mL
- IC80 in TZM-bl assay [38]: > 30 µg/mL
- IC50 in TZM-bl assay [39]: 0.003 µg/mL
- IC80 in TZM-bl assay [39]: 0.012 µg/mL
- IC50 in TZM-bl assay [40]: 2.87 µg/mL
- IC80 in TZM-bl assay [40]: 29.8 µg/mL
